Measurements taken from US11370825B2, “Polypeptides, cells, and methods involving engineered CD16” (Regents of the University of Minnesota, priority 2014, dated 2022).
Where a chain is given by its changes, count along the chain named. In names and notes the source's numbering stands.

Legend:
ADAM17 [1] = experiment: Soluble CD16b released from transfected HEK293 cells, ELISA of media supernatant (shedding); format: cell-based, human
Protocol: (§1) FIG. 3. Effects of the engineered S197P mutation on CD16a and CD16b shedding. Transfected HEK293 (human embryonic kidney) cells separately expressed CD16b and CD16b/S197P (A) or CD16a and CD16a/S197P (B) at similar levels, as determined by flow cytometry (left panels). The different transfectants were treated with or without PMA (15 ng/ml for 30 minutes at 37° C.) and soluble levels of CD16 in the media supernatant were quantified by ELISA (right panels). Each treatment condition was repeated three times for each experiment and the data are representative of three independent experiments. Bar graphs show mean±SD. Statistical significance is indicated as ***P<0.001. (C) Transfected HEK293 cells expressed L-selectin (CD62L) or L-selectin and CD16b/S197P. Surface levels of L-selectin and CD16b/S197P on transfected and mock-transfected cells were measured using flow cytometry (histogram plots). Transfectants expressing L-selectin or L-selectin and CD16b/S197P were incubated in the presence or absence of PMA for 30 minutes at 37° C., and the mean fluorescence intensity (MFI) of L-selectin staining determined (bar graph). Each treatment condition was repeated three times for each experiment and the data are representative of two independent experiments. Bar graphs show mean±SD. Statistical significance is indicated as *P<0.05. For all histogram plots, the x-axis=Log 10 fluorescence and the y-axis=cell number.
HEK293 cells (a human embryonic kidney cell line) and NK92 cells (a human NK cell line) (ATCC, Manassas, Va.) were cultured according to the depository's instructions. HEK293 cells were transiently transfected with pcDNA3.1 with or without CD16b, CD16b/S197P, and/or L-selectin using Lipofectamine 2000 (Invitrogen, Carlsbad, Calif.) according to the manufacturer's instructions. HEK293 cells stably expressing human FcRγ were transiently transfected with pcDNA3.1 with or without CD16a or CD16a/S197P by the same approach. NK92 cells were stably transduced with pBMN-IRES-EGFP with or without CD16a or CD16a/S197P by retrovirus generation and infection procedures described previously (Matala et al., 2001, J Immunol. 167:1617-1623; Walcheck et al., 2003, J Leukoc Biol. 74:389-394; Wang et al., 2009, J Immunol. 182:2449-2457). Construct expression was assessed by EGFP fluorescence and CD16 staining, as determined by flow cytometry. Human iPSCs (UCBiPS7, derived from umbilical cord blood CD34 cells) were maintained on mouse embryonic fibroblasts (Knorr et al., 2013, Stem Cells Transl Med. 2:274-283; Ni et al., 2014, Stem Cells 32:1021-1031). Stable expression of CD16a or CD16a/S197P was performed using a Sleeping Beauty transposon system as previously described (Wilber et al., 2007, Stem Cells 25:2919-2927; Tian et al., 2009, Stem Cells 27:2675-2685). […]

ADAM17 [2] = experiment: L-selectin surface down-regulation in HEK293 transfectants expressing or lacking CD16b/S197P (ADAM17 activity control); format: cell-based, human; conditions: HEK293 cells expressing versus lacking CD16b/S197P; PMA 30 minutes at 37° C.
Protocol: as §1, with “(C) Transfected HEK293 cells expressed L-selectin (CD62L) or L-selectin and CD16b/S197P.” left out, “Each treatment condition was repeated three times for each experiment and the data are representative of two independent experiments. Bar graphs show mean±SD. Statistical significance is indicated as *P<0.05.” left out
HEK293 cells (a human embryonic kidney cell line) and NK92 cells (a human NK cell line) (ATCC, Manassas, Va.) were cultured according to the depository's instructions. […] Construct expression was assessed by EGFP fluorescence and CD16 staining, as determined by flow cytometry. […]

[3] = HEK293 transfectants treated with PMA 15 ng/ml for 30 minutes at 37° C.
[4] = untreated transfected HEK293 cells

B1: CD16b: Wild-type human IgG Fc receptor CD16b (FcγRIIIb), NA1 allelic variant, recombinant comparator (protein, listed as Homo sapiens)
chain: MWQLLLPTALLLLVSAGMRTEDLPKAVVFLEPQWYRVLEKDSVTLKCQGAYSPEDNSTQWFHNENLISSQASSYFIDAATVDDSGEYRCQTNLSTLSDPVQLEVHVGWLLLQAPRWVFKEEDPIHLRCHSWKNTALHKVTYLQNGKDRKYFHHNSDFHIPKATLKDSGSYFCRGLVGSKNVSSETVNITITQGLAVSTISSFS
- soluble levels of CD16 in media supernatant (ADAM17 [1]; [3]): increased further
- soluble levels of CD16 in media supernatant (ADAM17 [1]; [4]): High levels

B2: CD16b/S197P: Human CD16b (FcγRIIIb, SEQ ID NO:2, NA1 variant) with serine-197 substituted by proline; expressed in HEK293 cells (protein, listed as Homo sapiens)
chain: B1 chain with S197P
- soluble levels of CD16 in media supernatant (ADAM17 [1]; [3]): markedly lower
- soluble levels of CD16 in media supernatant (ADAM17 [1]; [4]): markedly lower
- L-selectin down-regulation following activation with PMA (ADAM17 [2]): similarly down-regulated
